± gives the standard deviation of the averaged measurements.
B1: library; a variant is named by its letters at N, in order (parent)
chain: GCUGUCACCGAGAAACUGUGAAGUAUAUCUUAAACCUGGGCACUUAAAAGAUAUAUGGAGUUAGUAGUGCAACCUGCUCGGUCUGAUGAGUCCNNNNNNGGACGAAACAGC

Columns and labels:
cyclic di-GMP [1] = variants of: B1; assay: normalized RNA/DNA level without ligand (relative to sTRSVctl = 100) (log10 (% of sTRSVctl)); HEK293T; ligand: cyclic di-GMP (c-di-GMP-II aptamer); higher = less ribozyme self-cleavage, higher mRNA level; details: reporter: mCherry (pCS4076), ligand present: no
Summary of the method: (§1)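 Ribozyme switch library plasmids linked to reporters were introduced into HEK293T cells at 4 µg per 6-well well, with ligand, if any, added 1 h before. Total RNA was extracted with EDTA 72 h later, reverse-transcribed, amplified, barcoded and sequenced. RNA level was computed from RNA over DNA reads relative to a spiked-in non-cleaving sequence or the top sequences, then scaled and log-transformed. The top set was 25 sequences, values were ×100 and log10, and the cutoff was ≥100 DNA reads.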

cyclic di-GMP [2] = variants of: B1; assay: normalized RNA/DNA level with ligand (relative to sTRSVctl = 100) (log10 (% of sTRSVctl)); HEK293T; ligand: cyclic di-GMP (c-di-GMP-II aptamer); ligand concentration (+) RNA-Seq: 1 mM; higher = less ribozyme self-cleavage, higher mRNA level; details: reporter: mCherry (pCS4076), ligand present: yes
Summary of the method: as §1

| Variant | normalized RNA/DNA level without ligand (log10) (cyclic di-GMP [1]) | normalized RNA/DNA level with ligand (log10) (cyclic di-GMP [2]) |
| --- | --- | --- |
| GGAUCC | 1.86 ± 0.058 | 1.93 ± 0.055 |
| GGAUCA | 1.63 ± 0.02 | 1.77 ± 0.13 |
| AGCAAC | 1.65 ± 0.032 | 1.77 ± 0.092 |
| AGCAAG | 1.51 ± 0.09 | 1.68 ± 0.079 |
| UGAUCC | 1.89 ± 0.055 | 1.98 ± 0.075 |
| UGAUCA | 1.76 ± 0.073 | 1.88 ± 0.11 |
| UGAUCG | 1.77 ± 0.053 | 1.84 ± 0.15 |
| UGAUCU | 1.72 ± 0.023 | 1.86 ± 0.11 |
| AGAUCU | 1.72 ± 0.045 | 1.85 ± 0.084 |
| AGAUCG | 1.72 ± 0.051 | 1.88 ± 0.061 |
| AGAUCA | 1.59 ± 0.076 | 1.74 ± 0.081 |
| AGAUCC | 1.81 ± 0.016 | 1.89 ± 0.038 |
| AGCAUC | 1.8 ± 0.021 | 1.88 ± 0.12 |
| AGCAUU | 1.66 ± 0.0074 | 1.84 ± 0.073 |
| AGCAUA | 1.52 ± 0.083 | 1.73 ± 0.074 |
| UGCGAA | 1.69 ± 0.054 | 1.784 ± 0.013 |
| UGCGAU | 1.605 ± 0.0035 | 1.8 ± 0.091 |
| UGCGAC | 1.685 ± 0.016 | 1.82 ± 0.08 |
| UGACUU | 1.68 ± 0.043 | 1.85 ± 0.13 |
| UGACUG | 1.7 ± 0.033 | 1.84 ± 0.11 |
| UGACUA | 1.665 ± 0.0041 | 1.78 ± 0.084 |
| UGAGUA | 1.73 ± 0.032 | 1.85 ± 0.15 |
| UGAGUU | 1.67 ± 0.017 | 1.8 ± 0.091 |

| Variant | normalized RNA/DNA level without ligand (log10) (cyclic di-GMP [1]) | normalized RNA/DNA level with ligand (log10) (cyclic di-GMP [2]) |
| --- | --- | --- |
| CGAUGG | 1.67 ± 0.07 | 1.81 ± 0.073 |
| CGAUGU | 1.75 ± 0.025 | 1.91 ± 0.11 |
| CGCAUC | 1.66 ± 0.037 | 1.83 ± 0.11 |
| CGCAUU | 1.47 ± 0.073 | 1.61 ± 0.11 |
| CGCCCG | 1.756 ± 0.0093 | 1.87 ± 0.14 |
| CGCCCU | 1.777 ± 0.0073 | 1.87 ± 0.077 |
| CGCCCA | 1.84 ± 0.069 | 1.91 ± 0.11 |
| CGCCCC | 1.818 ± 0.0078 | 1.9 ± 0.1 |
| GGACUC | 1.757 ± 0.0094 | 1.92 ± 0.082 |
| GGCCAC | 1.7289 ± 0.0006 | 1.88 ± 0.083 |
| GGCCAG | 1.74 ± 0.0068 | 1.85 ± 0.025 |
| GGCCAU | 1.73 ± 0.03 | 1.84 ± 0.1 |
| GGCCAA | 1.638 ± 0.01 | 1.74 ± 0.1 |
| AGCGAG | 1.57 ± 0.13 | 1.74 ± 0.042 |
| AGCGAC | 1.65 ± 0.052 | 1.81 ± 0.077 |
| AGCGAU | 1.71 ± 0.015 | 1.87 ± 0.1 |
| UGAGGU | 1.61 ± 0.052 | 1.79 ± 0.12 |
| UGAGGC | 1.74 ± 0.028 | 1.87 ± 0.12 |
| UGAGGG | 1.63 ± 0.045 | 1.79 ± 0.083 |
| UGAGGA | 1.54 ± 0.091 | 1.75 ± 0.088 |
| CGAGUU | 1.72 ± 0.08 | 1.84 ± 0.094 |
| CGAGUC | 1.76 ± 0.065 | 1.88 ± 0.12 |
| CGAGUG | 1.7 ± 0.049 | 1.83 ± 0.15 |

| Variant | normalized RNA/DNA level without ligand (log10) (cyclic di-GMP [1]) | normalized RNA/DNA level with ligand (log10) (cyclic di-GMP [2]) |
| --- | --- | --- |
| CGAGUA | 1.7354 ± 0.0011 | 1.79 ± 0.11 |
| AGCGCA | 1.661 ± 0.005 | 1.78 ± 0.12 |
| AGCGCC | 1.7734 ± 0.0015 | 1.91 ± 0.082 |
| CGACGU | 1.66 ± 0.034 | 1.84 ± 0.048 |
| CGACGC | 1.74 ± 0.04 | 1.82 ± 0.12 |
| CGACGG | 1.667 ± 0.013 | 1.8 ± 0.16 |
| GGAGCC | 1.85 ± 0.011 | 1.9 ± 0.1 |
| AGCCUC | 1.77 ± 0.073 | 1.87 ± 0.13 |
| AGCCUG | 1.6624 ± 0.00017 | 1.81 ± 0.15 |
| AGCCCA | 1.84 ± 0.046 | 1.92 ± 0.11 |
| AGCCCC | 1.81 ± 0.031 | 1.92 ± 0.12 |
| AGCCCU | 1.77 ± 0.047 | 1.88 ± 0.12 |
| UGCGCC | 1.79 ± 0.046 | 1.92 ± 0.094 |
| UGCGCA | 1.711 ± 0.014 | 1.86 ± 0.061 |
| CGAUUC | 1.63 ± 0.022 | 1.81 ± 0.075 |
| CGAUUA | 1.28 ± 0.11 | 1.43 ± 0.12 |
| CGAUUU | 1.43 ± 0.11 | 1.64 ± 0.13 |
| CGAUUG | 1.7 ± 0.019 | 1.89 ± 0.03 |
| GGCAGU | 1.76 ± 0.071 | 1.849 ± 0.0031 |
| GGCAGC | 1.716 ± 0.013 | 1.82 ± 0.081 |
| GGCAGA | 1.637 ± 0.013 | 1.76 ± 0.1 |
| GGCAGG | 1.82 ± 0.022 | 1.83 ± 0.042 |
| UGCAGA | 1.63 ± 0.031 | 1.8 ± 0.096 |

| Variant | normalized RNA/DNA level without ligand (log10) (cyclic di-GMP [1]) | normalized RNA/DNA level with ligand (log10) (cyclic di-GMP [2]) |
| --- | --- | --- |
| UGCAGU | 1.66 ± 0.038 | 1.83 ± 0.11 |
| UGCAGG | 1.747 ± 0.003 | 1.85 ± 0.12 |
| UGCAGC | 1.77 ± 0.031 | 1.87 ± 0.11 |
| CGAUAC | 1.61 ± 0.033 | 1.77 ± 0.084 |
| CGAUAG | 1.7 ± 0.056 | 1.87 ± 0.12 |
| AGAGUU | 1.6 ± 0.016 | 1.8 ± 0.14 |
| AGAGUC | 1.6 ± 0.02 | 1.76 ± 0.097 |
| AGAGUG | 1.72 ± 0.029 | 1.8 ± 0.09 |
| AGAGUA | 1.66 ± 0.029 | 1.73 ± 0.081 |
| UGCAUA | 1.7 ± 0.027 | 1.84 ± 0.084 |
| UGCAUU | 1.713 ± 0.0057 | 1.84 ± 0.056 |
| GGCAUG | 1.68 ± 0.085 | 1.7 ± 0.081 |
| GGCAUA | 1.58 ± 0.11 | 1.72 ± 0.14 |
| GGCAUC | 1.65 ± 0.023 | 1.81 ± 0.087 |
| GGCAUU | 1.66 ± 0.076 | 1.82 ± 0.021 |
| GGAUAC | 1.67 ± 0.049 | 1.78 ± 0.16 |
| UGAUUA | 1.704 ± 0.011 | 1.84 ± 0.11 |
| UGAUUC | 1.71 ± 0.019 | 1.86 ± 0.08 |
| UGAUUG | 1.718 ± 0.017 | 1.88 ± 0.088 |
| GGCCCA | 1.8 ± 0.035 | 1.88 ± 0.082 |
| GGCCCC | 1.92 ± 0.045 | 2 ± 0.13 |
| GGCCCU | 1.877 ± 0.012 | 1.94 ± 0.057 |
| GGCACC | 1.75 ± 0.06 | 1.82 ± 0.085 |

| Variant | normalized RNA/DNA level without ligand (log10) (cyclic di-GMP [1]) | normalized RNA/DNA level with ligand (log10) (cyclic di-GMP [2]) |
| --- | --- | --- |
| GGCACG | 1.76 ± 0.026 | 1.88 ± 0.039 |
| GGCACU | 1.73 ± 0.12 | 1.885 ± 0.0081 |
| GGCACA | 1.69 ± 0.024 | 1.8 ± 0.12 |
| CGCCGC | 1.8 ± 0.068 | 1.91 ± 0.11 |
| CGCCGA | 1.6 ± 0.065 | 1.81 ± 0.072 |
| CGCCGG | 1.711 ± 0.011 | 1.85 ± 0.11 |
| CGCCGU | 1.77 ± 0.049 | 1.87 ± 0.063 |
| AGCCGU | 1.58 ± 0.048 | 1.77 ± 0.064 |
| AGCCGC | 1.75 ± 0.033 | 1.89 ± 0.13 |
| AGCCGG | 1.765 ± 0.013 | 1.865 ± 0.018 |
| AGCCGA | 1.748 ± 0.014 | 1.84 ± 0.14 |
| CGCACU | 1.48 ± 0.12 | 1.71 ± 0.058 |
| CGCACC | 1.7 ± 0.031 | 1.83 ± 0.12 |
| CGCACA | 1.41 ± 0.091 | 1.59 ± 0.11 |
| CGCACG | 1.75 ± 0.038 | 1.85 ± 0.08 |
| GGCCGC | 1.71 ± 0.03 | 1.84 ± 0.097 |
| UGCCUC | 1.77 ± 0.072 | 1.9 ± 0.15 |
| UGCCUU | 1.725 ± 0.0025 | 1.87 ± 0.082 |
| UGCCUG | 1.78 ± 0.047 | 1.88 ± 0.14 |
| UGCCUA | 1.728 ± 0.0086 | 1.86 ± 0.074 |
| AGAGCC | 1.78 ± 0.041 | 1.88 ± 0.12 |
| AGAGCU | 1.713 ± 0.012 | 1.84 ± 0.043 |
| AGAGCG | 1.81 ± 0.05 | 1.84 ± 0.17 |

Source: the supplement of paper PMC6757056
